The results in this text go back to US20220275059A1 (HARBOUR ANTIBODIES, published 2022).

“And” between values parts separate entries of the source, which are not always exact repeats. Equal values may be shown once.

The target of assay [1] is T1, MERS-S on pseudotyped VSV particles (MERS-S carrying a 16-a.a. cytoplasmic tail truncation) (MERS-CoV, UniProt K9N5Q8 18-1337). The assay is described as follows: cell-based or functional assay.
The target of assay [2] is MERS-CoV S S1 subunit (MERS-S1) (MERS-CoV EMC isolate, UniProt K9N5Q8 19-748). The assay is described as follows: ForteBio Octet kinetic measurement (FIG. 3A).
Another assay addresses T2, MERS-S1^A domain (MERS-CoV EMC isolate, UniProt K9N5Q8 19-357).
T2 sequence: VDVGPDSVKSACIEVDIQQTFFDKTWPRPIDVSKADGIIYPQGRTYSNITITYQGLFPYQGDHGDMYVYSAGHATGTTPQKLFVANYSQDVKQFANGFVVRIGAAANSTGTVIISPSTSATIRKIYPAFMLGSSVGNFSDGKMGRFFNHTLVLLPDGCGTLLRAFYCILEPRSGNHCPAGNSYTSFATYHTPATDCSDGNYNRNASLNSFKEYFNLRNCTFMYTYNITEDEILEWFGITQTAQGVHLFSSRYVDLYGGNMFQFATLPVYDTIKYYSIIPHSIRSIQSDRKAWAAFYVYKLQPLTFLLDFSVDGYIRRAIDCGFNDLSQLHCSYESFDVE
Description: ELISA on coated MERS-S1^A, OD450 [D].

Assay [3] deals with T1, MERS-S on pseudotyped VSV particles …. The assay is described as follows: cell-based or functional assay. This is another data set of the same source.

B1: 5.5e11 (antibody, V domains shown)
VH: QVQLVQSGAEVKKPGSSVKISCKASGGTFSTHAFTWVRQAPGQGLEWIGRIIPIFDTPKYAQKFQGRVTIAADISTSTVFMELSSLRSEDTAVFYCAREGYYISGSYRDAFDIWGQGTMVTVSS
VL: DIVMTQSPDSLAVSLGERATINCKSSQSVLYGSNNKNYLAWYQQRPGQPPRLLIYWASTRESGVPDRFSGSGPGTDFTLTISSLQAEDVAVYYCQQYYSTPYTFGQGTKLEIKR
In general, Kd refers to the concentration at which binding is half-saturated. Read a low Kd as a tighter complex. Regarding B1, the “IC50, neutralization of MERS-S pseudovirus infectivity (H2L2)” value (shortened to “IC50, neutralization … (H2L2)”) in assay [1] is approximately 1.7 ng/mL. The molecule also had a Kd in assay [2] of approximately 300 pM.

B2: 7.9g10 (antibody, V domains shown)
VH: QVQLVQSGAEVKKPGSSVKVSCKASGGTFSSYAISWVRQAPGQGLEWMGGIIPIFGTANYAQKFQGRVTITADKSTNTAYMELSSLRSEDTAVYYCAREDITMVRGVITNYWYFDLWGRGTLVTVSS
VL: DIQMTQSPSSLSASVGDRVTITCRASQDISNYLAWYQQKPGKVPKLLIYAASTLQSGVPSRFSGSGSGTDFTLTISSLQPEDVATYYCQKSNNAPLTFGGGTKVEIKR
Turning to B2, in assay [2], the dissociation constant Kd is approximately 200 pM.

B3: 7.3a9 (antibody, V domains shown)
VH: QVQLVESGGGVVQPGRSLRLSCAASGFNFSSDGMHWVRQAPGKGLEWVAVIWYDGRNKYYADSVKGRFTISRDNTKNTLYLQMNSLRAEDTAVYYCARDRGITMGRGPYYYYYGMDVWGQGTTVTVSS
VL: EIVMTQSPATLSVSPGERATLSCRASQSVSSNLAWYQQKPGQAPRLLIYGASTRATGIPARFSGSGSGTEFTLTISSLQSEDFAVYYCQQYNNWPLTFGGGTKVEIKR
In turn, B3 gave a Kd in assay [2] of approximately 430 pM.

B4: 5.2b7 (antibody, V domains shown)
VH: QVQLVESGGGVVQPGRSLRLSCAASGFTFSSDGMHWVRQAPGKGLEWVAVIWFDGSNKYYADSVKGRFTISRDNSKNTMYLQMNSLRAEDTAVYYCTRDRGITMGRGRYYYYYGMDVWGQGTTVTVSS
VL: EIVMTQSPATLSVSPGERATLSCRASQSVGSNLAWYQQKPGQAPRLLIYGASTRATGIPARFSGSGSGTEFTLTISSLQSEDFAVYYCQQYNNWPLTFGGGTKVEMKR
Consider B4, for which the “IC50, neutralization … (H2L2)” value in assay [1] is approximately 0.81 ng/mL. Besides, the Kd in assay [2] was approximately 360 pM.

B5: 7.6c11 (antibody, V domains shown)
VH: QVQLVESGGGVVQPGRSLRLSCAASGFTFSSDGMHWVRQAPGKGLEWVAVIWYDGSSEYYGDSVKGRFTISRDNSKNTLYLQMNSLRAEDTAVYYCARDRGITMGRGVYYYYYGMDVWGQGTTVTVSS
VL: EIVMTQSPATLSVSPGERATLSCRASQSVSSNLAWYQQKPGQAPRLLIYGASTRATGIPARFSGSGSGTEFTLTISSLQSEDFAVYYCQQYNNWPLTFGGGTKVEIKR
Molecule B5 showed a Kd in assay [2] of approximately 400 pM.

B6: 1.3h2 (antibody, V domains shown)
VH: QVQLVESGGGVVQPGRSLRLSCAASGFTFSRYGMHWVRQAPGKGLQWVAFIWYDGSNKYYADAVKVRFTISRDNSKNTLYLQMNSLRAEDTAVYYCATEGDYYGSGSYSRAEYFQEWGQGTLVTVSS
VL: EIVMTQSPATLSVSPGERATLSCRASQSVSINLAWYQQKPGQAPRLLIYDTSARATGIPARFSGSGSGTEFTLTISSLQSEDFAVYYCQQYNNWPFTFGPGTKVDIKR
B6 registered a Kd in assay [2] of approximately 1900 pM.

B7: 7.2h5 (antibody, V domains shown)
VH: QVQLVQSGAEVKKPGSSVKVSCKASGGTFSSYAISWVRQAPGQGLEWMGGIIPIFGTVKNAQKFQGRVTITADKSTGTAYMELSSLRSEDTAVYYCARDHYYDSNDYYWYFDLWGRGTLVTVSS
VL: EIVMTQSPATLSVSPGERATLSCRASQSVSSNLAWYQKKPGQAPRLLIYGASTRVTGIPARFSGSGSGTEFTLTISSLQSEDFAVYYCQQYNNWPLTFGGGTKVEIKR
B7 came in with a Kd in assay [2] of approximately 360 pM.

B8: 4.2c3 (antibody, V domains shown)
VH: QVQLVESGGGVVQPGRSLRLSCTASGFTFSGYGMHWVRQAPGKGLEWVAIIWYDGSNTYYADSAKGRFTISRDNSKNTLYLQMNSLRVEDTAVYYCARDRGISVAALWKYYYYHGLDVWGQGTTVTVSS
VL: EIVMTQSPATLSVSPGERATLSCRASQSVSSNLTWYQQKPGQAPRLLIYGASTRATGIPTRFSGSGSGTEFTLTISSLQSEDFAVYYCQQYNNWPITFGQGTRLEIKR
In the case of B8, in assay [2], the Kd was approximately 120 pM.

B9: 4.9f12 (antibody, V domains shown)
VH: QVQLVESGGGVVQPGMSLRLSCTASGFTFSGYAMHWVRQAPVKGLEWVAIIWYDGSNKYYADSVKGRFTISRDNSKNTLYLQMNSLRAEDTAVYYCARDRGISEAAKWKYYYYYGMDVWGQGTTVTVSS
VL: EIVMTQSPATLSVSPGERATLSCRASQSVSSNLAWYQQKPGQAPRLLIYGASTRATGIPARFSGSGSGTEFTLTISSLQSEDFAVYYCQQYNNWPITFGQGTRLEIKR
In turn, B9 returned a dissociation constant Kd in assay [2] of approximately 130 pM.

B10: 4.7a6 (antibody, V domains shown)
VH: QVQLVESGGGVVQPGRSLRLSCTASGFTFSGYAMHWVRQAPVKGLEWVAIIWYDGSNKYYADSVKGRFTISRDNSKNTLYLQMNSLRAEDTAVYYCARDRGISEAAKWKYYYYYGMDVWGQGTTVTVSS
VL: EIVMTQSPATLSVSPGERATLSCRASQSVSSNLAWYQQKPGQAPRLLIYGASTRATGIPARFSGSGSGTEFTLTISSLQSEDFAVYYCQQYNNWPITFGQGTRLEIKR
Molecule B10 came in with a Kd in assay [2] of approximately 130 pM.

B11: 7.7f3 (antibody, V domains shown)
VH: QVQLVESGGGVVQPGRSLRLSCTASGFTFSGYGMHWVRQAPGKGLEWVAIIWYDGSNTYYTDSAKGRFTISRDNSKDTLYLQMNSLRVEDTAVYYCARDRGISVAALWKYYYYHGLDVWGQGTTTTVSS
VL: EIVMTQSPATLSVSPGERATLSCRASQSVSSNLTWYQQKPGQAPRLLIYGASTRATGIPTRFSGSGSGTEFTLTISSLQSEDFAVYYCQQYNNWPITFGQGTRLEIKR
B11: the Kd in assay [2] was approximately 120 pM.

B12: 2.9d7 (antibody, V domains shown)
VH: QRKLVESGGGVVQPGRSLRLSCAVSGLIFSNYGMHWVRQAPGKGLEWVAVIWYDGSNTYYTDSVKGRFTISRDNSKNTLYLQMNSLRAEDTAVYYCARDRGMTAPGPGTYYYFYGMDVWGQGTTVTVSS
VL: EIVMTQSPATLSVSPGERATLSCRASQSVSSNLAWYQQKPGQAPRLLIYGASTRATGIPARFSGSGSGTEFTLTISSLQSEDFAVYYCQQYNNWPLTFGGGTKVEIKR
Consider B12, for which the Kd in assay [2] is approximately 350 pM.

B13: 7.5d3 (antibody, V domains shown)
VH: QVQLVESGGGVVQPGRSLRLSCAATGFTFSYYGMHWVRQAPGKGLEWVAVIWFDGTNIYYADSVRGRFTISRDNSKNTLYLQMNSLRAEDSAVYYCARDRRSSDWYVVFDYWGQGTLVTVSS
VL: DIQLTQSPSFLSASVGDRVTITCRASQGISSYLAWYQQKPGKAPKLLIYAASTLQSGVPSRFSGSGSGTEFTLTISSLQPEDFATYYCQQLNSYPWTFGQGTKVEIKR
In assay [2], B13 returned a dissociation constant (Kd) of approximately 6000 pM.

B14: 1.10e9 (antibody, V domains shown)
VH: QVQLQQSGPGLVKPSQTLSLTCAISGDSVSSNSAAWNWIRQSPSRGLEWLGRTYYRSKWYNDYAVSVKSRITINPNTSKNQFSLQLNPVTPEDTAVYFCAREWFGEGYFDLWGRGTLVTVSS
VL: EIVMTQSPATLSVSPGESATLSCRASQTIYSNLAWYQRKPGQAPRLLIYRASTRATGIPARFSGSGSGTEFTLTISSLQSEDFAVYCCQQFNNWPYTFGQGTKLEIKR
B14 displayed a Kd in assay [2] of approximately 440 pM.

B15: 1.6f9 (antibody, V domains shown)
VH: QVQLVQSGAEVKKPGSSVKVSCKASGGAFSAYVITWVRQAPGQGLEWMGGIIPVFGTAHYAQKFQGRVTITADKSTSTAFMELSSLRSEDTAVYYCAREGDIEVVLAGRGYFDYWGQGTLVTVSS
VL: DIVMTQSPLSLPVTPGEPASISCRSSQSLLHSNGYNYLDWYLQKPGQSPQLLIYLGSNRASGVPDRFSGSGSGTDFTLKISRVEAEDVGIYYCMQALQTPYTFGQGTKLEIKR
Turning to B15, in assay [1], the “IC50, neutralization … (H2L2)” value is approximately 0.38 ng/mL and the “IC50, neutralization of MERS-S pseudovirus infectivity (human IgG1)” value was approximately 19 ng/mL. Also, in the assay with MERS-S1^A domain, the binding result is reported as “no binding (tested: about 5x10^5 ng/ml)”. The “IC50, neutralisation of MERS-S VSV pseudovirus on Vero cells” value in assay [3] was 0.006 µg/ml and 0.04 nM. The molecule further registered a Kd in assay [2] of approximately 530 pM.

B16: 1.6e1 (antibody, V domains shown)
VH: QVQLVQSGAEVKKPGSSVKVSCKASGGAFSAYAISWVRQAPGQGLEWMGGIIPIFGTANYAQKFQGRVTITADTSTSTAYMELSSLRSEDTAVYYCAREGDIEVVLAARGFFDYWGQGTLVTVSS
VL: DIQMTQSPSSLSASVGDRVTITCRASQGISNYLAWYQQKPGKVPKLLIYAASTLQSGVPSRFSGSGSGTDFTLTISSLQPEDVATYYCQKYNSAPWTFGQGTKVEIKR
On to B16, for which the Kd in assay [2] is approximately 110 pM.

B17: 1.6c2 (antibody, V domains shown)
VH: QVQLVQSGTEVKKPGSSVKVSCKASGGAFSAYAITWVRQAPGQGLEWMGGIIPIFGTAHYAQKFQGRVTITADKSTSTAFMELSSLRSEDTAVYYCAREGDIEVVLAGRGYFDYWGQGTLVTVSS
VL: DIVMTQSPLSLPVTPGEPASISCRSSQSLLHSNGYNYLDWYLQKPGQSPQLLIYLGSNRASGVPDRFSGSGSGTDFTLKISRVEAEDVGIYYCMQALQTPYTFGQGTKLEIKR
Turning to B17, the Kd in assay [2] was approximately 860 pM.

B18: 5.11h8 (antibody, V domains shown)
VH: QVQLVQSGAEVKKPGSSVKVSCKASGGAFSAYAIDWVRQAPGQGLEWMGGIIPIFGTAHYAQKLQGRVTITADKSTSTAYMELSSLRSEDTAVYYCAREGDSGLVLAARGFFDYWGQGTLVTVSS
VL: DIQMTQSPSSLSASVGDRVTITCRASQGISNYLAWYQQKPGKVPKLLIYAASTLQSGVPSRFSGSGSGTDFTLTISSLQPEDVATYYCQKYNSAPWTFGQGTKVEIKR
The molecule B18 displayed a Kd in assay [2] of approximately 680 pM.

B19: 7.9g1 (antibody, V domains shown)
VH: QVQLVESGGGVVQPGRSLRLSCAASGFTFSTYAMHWVRQAPGKGLEWVAVIWYDGSNKYYADSVKGRLTISRDNSKNTLFLQMNSLRAEDTAVYYCARDRGITTTDTGYYYYYYGLDIWGQGTTVTVSS
VL: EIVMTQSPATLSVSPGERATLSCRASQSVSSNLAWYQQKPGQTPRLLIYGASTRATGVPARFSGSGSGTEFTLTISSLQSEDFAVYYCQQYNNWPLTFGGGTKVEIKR
As for B19, the Kd in assay [2] was approximately 210 pM.

B20: 1.3g2 (antibody, V domains shown)
VH: QVQLVQSGAEVKKPGSSVKVSCKASGGTFSTYAISWVRQAPGQGLEWMGGIIPIFGTANYAQKFQGRVTIIADKSTNTAYMDLSSLRSEDTAVYYCAREGNLGYDVVTGYSYFVYWGQGTLVTVSS
VL: EIVLTQSPGTLSLSPGERATLSCRASQSVSSSYLAWYQQKPDQVPRLLIYGTSSRATGIPDRFSGSGSGTDFTLTISRLEPEDFAVYYCQQYGRSLTFGGGTKVEIKR
In assay [2], B20 registered a Kd of approximately 1100 pM.

B21: 7.9c10 (antibody, V domains shown)
VH: QVQLVESGGDVVQPGRSLRLSCAASGITFSNYGMHWVRQAPGKGLEWVAVIWYDGSNKYYADSVKGRFTISRDNSKNTLYLQMNSLRAEDTAVYYCARDRGMTGTTWEYYYYYGMDVWGQGTTVTVSS
VL: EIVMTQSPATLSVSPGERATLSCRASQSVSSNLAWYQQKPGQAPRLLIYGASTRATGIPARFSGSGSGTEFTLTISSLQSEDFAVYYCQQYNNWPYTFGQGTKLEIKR
The molecule B21 showed a dissociation constant (Kd) in assay [2] of approximately 110 pM.

B22: 7.7h8 (antibody, V domains shown)
VH: QVQLVESGGGVVQTGRSLRLSCAASGFTFSAYAMHWVRQAPGKGLEWVTFIGYEESNKYHADSVKGRFTISRDNSKNTLYLQMNSLRAEDTAVYYCARDRGISVAATWDYYYYYGMDVWGQGTTVTVSS
VL: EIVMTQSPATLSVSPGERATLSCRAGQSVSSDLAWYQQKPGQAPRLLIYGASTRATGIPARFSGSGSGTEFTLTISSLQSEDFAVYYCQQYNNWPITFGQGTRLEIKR
As to B22, the Kd in assay [2] is approximately 540 pM.
